Results on four compounds are retold here after patent US12329823B2 (The Scripps Research Institute, priority 2021, dated 2025).

The EC50 is the concentration at which the effect is half-maximal. Usually bioavailability stands for the share of a dose that reaches the circulation, judged against a reference dose that is usually intravenous. A higher bioavailability goes with good availability. In general, AUC(0-inf) refers to the area under the concentration-time curve extrapolated to infinity. By Cmax is commonly meant the peak of the concentration-time curve. The term MRT last denotes the average time that molecules of a dose stay in the body. By Tmax is commonly meant the time from dosing to the highest level. The half-life is the time in which the quantity being followed falls by half. A high value points to slow decline. One may read the AUC(0-t) as the area under the concentration-time curve up to a stated or last time point. Higher therefore signals more exposure.

Like-named read-outs stand apart in the source and are kept apart here.

One data set addresses human GLP-1R (Homo sapiens, UniProt P43220). The experiment in a line: In vitro receptor activation reporter assay (CRE-Luc, HEK293-GLP-1R-CRE cells; receptor-mediated cAMP synthesis). Type of data set: cell-based. On the set-up: expressed in transfected cells; host or cells: HEK293 (CRE-HEK293, HEK293-GLP-1R-CRE). On the technique in general: In a reporter assay the amount or activity of a reporter protein is the signal.

The nature of data set [1]: Acute oral glucose tolerance test (OGTT) in wild-type mice, 2 h and 96 h post injection. Type of data set: in vivo, mouse. The settings on record: 96 h after administration; 10 nmol/kg s.c.
The target in another data set is T1, human GIPR (Homo sapiens, UniProt P48546).
T1 construct: expressed in transfected cells; host or cells: HEK293 (CRE-HEK293, HEK293-GIPR-CRE)
T1 sequence (P48546 22-466): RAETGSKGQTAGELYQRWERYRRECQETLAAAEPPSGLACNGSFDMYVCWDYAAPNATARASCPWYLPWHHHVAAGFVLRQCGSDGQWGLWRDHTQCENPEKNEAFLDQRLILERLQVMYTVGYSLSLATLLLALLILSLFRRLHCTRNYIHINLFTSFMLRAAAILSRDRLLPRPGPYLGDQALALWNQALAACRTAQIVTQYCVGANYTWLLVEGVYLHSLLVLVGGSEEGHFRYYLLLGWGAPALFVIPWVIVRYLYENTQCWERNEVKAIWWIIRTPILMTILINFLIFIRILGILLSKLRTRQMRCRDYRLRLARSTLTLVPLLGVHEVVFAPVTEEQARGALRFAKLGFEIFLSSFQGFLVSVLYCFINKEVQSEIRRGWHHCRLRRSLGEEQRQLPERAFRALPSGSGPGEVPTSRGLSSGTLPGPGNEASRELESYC
The data set can be described thus: In vitro receptor activation reporter assay (CRE-Luc, HEK293-GIPR-CRE cells; receptor-mediated cAMP synthesis). Type of data set: cell-based.

Data set [2] can be described thus: Pharmacokinetics in CD-1 mouse, I.V. or S.C. 1 mg/kg, plasma concentration by LC-MS.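 Further: peptide levels in plasma quantified by LC-MS across multiple sampling times.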
Protocol: The peptide plasma concentration at various time points was determined using LC-MS.
The nature of data set [3]: In vivo oral glucose tolerance test (OGTT) 12 h after a single S.C. dose. On the set-up: species or system mouse. The settings on record: 10 nmol/kg S.C.; 12 h before glucose. The method, then:
Mice were fasted overnight prior to the oral glucose tolerance test (OGTT), and then dosed with peptide. After 12 h, 1 g of glucose solution per kg body weight was administered orally, and mouse tail blood glucose levels were measured before (0 min) and after glucose challenge for 90 minutes (with measurements at 15, 30, 60 and 90 minutes) (FIG. 16). The data were compared using the unpaired Student's t test. Where appropriate, data were compared using repeated measures or one-way analysis of variance, followed by the Student-Newman-Keuls post hoc test. Calculations for […] (mg/dL*min) were also analyzed and graphed in FIG. 16. […]. […].

Sequence of human GLP-1R (P43220 24-463): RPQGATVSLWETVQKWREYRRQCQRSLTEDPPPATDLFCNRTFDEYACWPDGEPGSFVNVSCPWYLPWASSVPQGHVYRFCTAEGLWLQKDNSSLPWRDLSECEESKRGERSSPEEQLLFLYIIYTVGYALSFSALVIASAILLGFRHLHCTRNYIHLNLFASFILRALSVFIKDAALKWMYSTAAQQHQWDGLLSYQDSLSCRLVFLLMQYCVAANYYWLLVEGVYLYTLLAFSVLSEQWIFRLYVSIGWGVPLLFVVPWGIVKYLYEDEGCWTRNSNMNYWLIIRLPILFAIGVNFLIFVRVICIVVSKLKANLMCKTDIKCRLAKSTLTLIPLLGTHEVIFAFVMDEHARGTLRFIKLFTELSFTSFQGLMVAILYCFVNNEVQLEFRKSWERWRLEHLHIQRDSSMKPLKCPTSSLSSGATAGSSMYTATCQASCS
Protocol for human GIPR: (§1) HEK293 cells were infected with lentivirus encoding firefly luciferase gene under the control of cAMP responsive element (CRE) promoter (Qiagen, The Netherlands) and then were selected using 1 μg mL^−1 puromycin (Life Technologies, Carlsbad) for 1 week. The surviving cells (referred to as CRE-HEK293) were expanded and then transfected with a G418 selective mammalian expression plasmid encoding human GLP-1R or GIPR. In brief, GLP-1R or GIPR plasmid was transfected into CRE-HEK293 cells using Lipofectamine 2000 and selected with 400 μg mL^−1 Geneticin (Life Technologies, Carlsbad, CA). Single colony stable cell line overexpressing CRE-luciferase and GLP-1R or GIPR (HEK293-GLP-1R-CRE or HEK293-GIPR-CRE) was then established for in vitro activity assay.
(§2) The EC50 of each peptide was determined using GraphPad Prism 6 software (GraphPad, San Diego, CA).
Protocol for human GLP-1R: as §1, §2
HEK293 cells were infected with lentivirus encoding firefly luciferase gene under the control of cAMP responsive element (CRE) promoter (Qiagen, The Netherlands) and then were selected using 1 μg/mL puromycin (Life Technologies, Carlsbad) for 1 week. The surviving cells (referred to as CRE-HEK293) were expanded and then transfected with a G418 selective mammalian expression plasmid encoding human GLP-1R. In brief, GLP-1R plasmid was transfected into CRE-HEK293 cells using Lipofectamine 2000 and selected with 400 μg/mL Geneticin (Life Technologies, Carlsbad, CA). Single colony stable cell line overexpressing CRE-luciferase and GLP1R was then established for in vitro activity assay.

As for `CCCC[C@@H]1NC(=O)[C@H](C)NC(=O)[C@H](C)NC(=O)[C@H](CCC(N)=O)NC(=O)[C@H](CCCCN)NC(=O)[C@H](CC(=O)O)NC(=O)[C@@H](NC(=O)[C@H](Cc2ccc(O)cc2)NC(=O)[C@@H](NC(=O)[C@H](CC(=O)O)NC(=O)[C@H](Cc2ccc(O)cc2)NC(=O)[C@H](CC(=O)O)NC(=O)[C@H](CO)NC(=O)[C@H](Cc2c[nH]cn2)NC(=O)[C@H](Cc2ccccc2)NC(=O)[C@@H](NC(=O)CNC(=O)[C@H](CCC(=O)O)NC(=O)C(C)(C)NC(=O)[C@@H](N)Cc2ccc(O)cc2)[C@@H](C)O)[C@@H](C)CC)CCCCNC(=O)CN(C(=O)CCNC(=O)CCOCCOCCNC(=O)CCOCCOCCNC(=O)CC[C@H](NC(=O)CCCCCCCCCCCCCCCCC(=O)O)C(=O)O)CC(=O)NCCCC[C@@H](C(=O)N[C@@H](Cc2ccccc2)C(=O)N[C@H](C(=O)N[C@@H](C)C(=O)N[C@@H](Cc2c[nH]c3ccccc23)C(=O)N[C@@H](CC(C)C)C(=O)N[C@@H](CC(C)C)C(=O)N[C@@H](C)C(=O)NCC(=O)NCC(=O)N2CCC[C@H]2C(=O)N[C@@H](CO)C(=O)N[C@@H](CO)C(=O)NCC(=O)N[C@@H](C)C(=O)N2CCC[C@H]2C(=O)N2CCC[C@H]2C(=O)N2CCC[C@H]2C(=O)N[C@@H](CO)C(N)=O)C(C)C)NC1=O` [ZA-42 - K5, YAibEGT-FHSDY-DIYXD-KQAANle-XFVAW-LLAGG-PSSGA-PPPS-NH2 (where each X is K) (SEQ ID NO: 47)], the half-maximal effective concentration (EC50) at human GLP-1R (Table 7, read-out: EC50 GLP1R) is roughly 13700 nM.

Consider `CC[C@H](C)[C@H](NC(=O)[C@H](CO)NC(=O)[C@H](Cc1ccc(O)cc1)NC(=O)[C@H](CC(=O)O)NC(=O)[C@H](CO)NC(=O)[C@@H](NC(=O)[C@H](Cc1ccccc1)NC(=O)[C@@H](NC(=O)CNC(=O)[C@H](CCC(=O)O)NC(=O)C(C)(C)NC(=O)[C@@H](N)Cc1ccc(O)cc1)[C@@H](C)O)[C@@H](C)O)C(=O)N[C@@H](Cc1ccc(O)cc1)C(=O)N[C@H]1CCCCNC(=O)CN(C(=O)CCNC(=O)CCOCCOCCNC(=O)CCOCCOCCNC(=O)CC[C@H](NC(=O)CCCCCCCCCCCCCCCCC(=O)O)C(=O)O)CC(=O)NCCCC[C@@H](C(=O)N[C@@H](Cc2ccccc2)C(=O)N[C@H](C(=O)N[C@@H](CC(N)=O)C(=O)N[C@@H](Cc2c[nH]c3ccccc23)C(=O)N[C@@H](CC(C)C)C(=O)N[C@@H](CC(C)C)C(=O)N[C@@H](C)C(=O)NCC(=O)NCC(=O)N2CCC[C@H]2C(=O)N[C@@H](CO)C(=O)N[C@@H](CO)C(=O)NCC(=O)N[C@@H](C)C(=O)N2CCC[C@H]2C(=O)N2CCC[C@H]2C(=O)N2CCC[C@H]2C(=O)N[C@@H](CO)C(N)=O)C(C)C)NC(=O)C(C)(C)NC(=O)[C@H](C)NC(=O)[C@H](C)NC(=O)[C@H](CCC(N)=O)NC(=O)[C@H](CCCCN)NC(=O)[C@H](CC(=O)O)NC1=O` [mCLZ715, YAibEGT-FTSDY-SIYXD-KQAAAib-XFVNW-LLAGG-PSSGA-PPPS-NH2 (where each X is K) (SEQ ID NO: 40)], for which, in data set [1], the fasted glucose levels entry is “significantly reduce fasted glucose levels” and the “glucose handling (OGTT) versus vehicle” value is reported as “more significant improvements in handling glucose”.

On to `CC[C@H](C)[C@H](NC(=O)[C@H](CC(C)C)NC(=O)[C@H](Cc1c[nH]c2ccccc12)NC(=O)[C@H](CC(N)=O)NC(=O)[C@@H](NC(=O)[C@H](Cc1ccccc1)NC(=O)[C@@H]1CSCC(=O)NCCN(C(=O)CCC(=O)NCCOCCOCCC(=O)NCCOCCOCCC(=O)NCCCC[C@H](NC(=O)CCCCCCCCCCCCCCCCCCC(=O)O)C(=O)O)CCNC(=O)CSC[C@H](NC(=O)[C@H](Cc2ccc(O)cc2)NC(=O)[C@@H](NC(=O)[C@H](CO)NC(=O)[C@H](Cc2ccc(O)cc2)NC(=O)[C@H](CC(=O)O)NC(=O)[C@H](CO)NC(=O)[C@@H](NC(=O)[C@H](Cc2ccccc2)NC(=O)[C@@H](NC(=O)CNC(=O)[C@H](CCC(=O)O)NC(=O)C(C)(C)NC(=O)[C@@H](N)Cc2ccc(O)cc2)[C@@H](C)O)[C@@H](C)O)[C@@H](C)CC)C(=O)N[C@@H](CC(=O)O)C(=O)N[C@@H](CCCCN)C(=O)N[C@@H](CCC(N)=O)C(=O)N[C@@H](C)C(=O)N[C@@H](C)C(=O)NC(C)(C)C(=O)N1)C(C)C)C(=O)N[C@@H](C)C(=O)NCC(=O)NCC(=O)N1CCC[C@H]1C(=O)N[C@@H](CO)C(=O)N[C@@H](CO)C(=O)NCC(=O)N[C@@H](C)C(=O)N1CCC[C@H]1C(=O)N1CCC[C@H]1C(=O)N1CCC[C@H]1C(=O)N[C@@H](CO)C(N)=O` [mCMV266, YAibEGT-FTSDY-SIYXD-KQAAAib-XFVNW-LIAGG-PSSGA-PPPS-NH2 (where each X is C) (SEQ ID NO: 52)], for which the EC50 was 0.08 nM at human GIPR (EC50 GIPR 02/19, unnumbered table, run 02/19); 0.06 nM at human GIPR (EC50 GIPR 03/25, unnumbered table, run 03/25); 0.06 nM on human GIPR (EC50 GIPR 03/26, unnumbered table, run 03/26); 0.07 nM at human GIPR (EC50 GIPR, Table 8); 0.07 nM on human GIPR (unnumbered table, average of runs, read-out: EC50 GIPR average); 0.03 nM at human GLP-1R (EC50 GLP1R 02/19, unnumbered table, run 02/19). In addition, the EC50 at human GLP-1R (EC50 GLP1R 3/25, unnumbered table, run 3/25) came out at 0.05 nM; at human GLP-1R (EC50 GLP1R 03/26, unnumbered table, run 03/26) it was 0.06 nM; at human GLP-1R (EC50 GLP1R, Table 8), 0.05 nM; on human GLP-1R (unnumbered table, average of runs, read-out: EC50 GLP1R average), 0.05 nM. Further, the bioavailability in data set [2] (CD-1, mouse, in vivo, sc, 1 mg/kg) worked out at 63%. For the same compound, the Cl in data set [2] (Table 14, SC 1 mg/kg) is 4.02 mL/h/kg. The Vd in data set [2] (Table 14, SC 1 mg/kg) turned out to be 0.063 L/kg; in data set [2] (mouse, in vivo, iv, 1 mg/kg), 0.043 L/kg. The AUC(0-inf) in data set [2] (mouse, in vivo, iv, 1 mg/kg) is 397 µg·h/mL; in data set [2] (mouse, in vivo, sc, 1 mg/kg), 252 µg·h/mL. The Cmax stood at 30400 ng/mL in data set [2] (mouse, in vivo, iv, 1 mg/kg) and 6610 ng/mL in data set [2] (mouse, in vivo, sc, 1 mg/kg). The MRT last in data set [2] (mouse, in vivo, iv, 1 mg/kg) was determined as 18.6 h; in data set [2] (mouse, in vivo, sc, 1 mg/kg) it was 24.3 h. Further, the Tmax in data set [2] (mouse, in vivo, iv, 1 mg/kg) is 0.5 h; in data set [2] (mouse, in vivo, sc, 1 mg/kg), 12.7 h. In data set [2] (mouse, in vivo, iv, 1 mg/kg), this compound had a clearance of 2.58 mL/h/kg. In addition, the half-life in data set [2] (mouse, in vivo, iv, 1 mg/kg) was 11.5 h; in data set [2] (mouse, in vivo, sc, 1 mg/kg), 10.7 h. Further, the AUC(0-t) in data set [2] (mouse, in vivo, iv, 1 mg/kg, AUC0-24, Table 14, IV 1 mg/kg) was determined as 269 µg·h/mL; in data set [2] (mouse, in vivo, iv, 1 mg/kg, AUCLAST, Table 14, IV 1 mg/kg), 390 µg·h/mL; in data set [2] (mouse, in vivo, sc, 1 mg/kg, AUC0-24, Table 14, SC 1 mg/kg), 135 µg·h/mL; in data set [2] (mouse, in vivo, sc, 1 mg/kg, AUCLAST, Table 14, SC 1 mg/kg), 247 µg·h/mL.

Semaglutide [reference compound]: the “glucose handling (OGTT) versus vehicle” value in data set [1] is listed as “did not exhibit any improvement over the vehicle”. Besides, in data set [3], the “effects on glucose tolerance” value is recorded as “indistinguishable effects on glucose tolerance”.
